To fix the notation:
B1: Trx1 C30/33S double mutant, His-tagged (natural protein, S. cerevisiae, UniProt P22217 1-103, looked up)
chain: MVTQFKTASEFDSAIAQDKLVVVDFYATWSGPSKMIAPMIEKFSEQYPQADFYKLDVDELGDVAQKNEVSAMPTLLLFKNGKEVAKVVGANPAAIKQAIAANA
notes: Thioredoxin 1 (Trx1), S. cerevisiae, both active-site cysteines changed to serine; also called Trx1His C30/33S; TrxC30/33SHis; source: purified as 6His-tagged protein
B2: Thioredoxin 1 (Trx1), His-tagged, wild type (natural protein, S. cerevisiae, UniProt P22217 1-103, looked up)
chain: B1 chain with S30C, S33C
notes: Thioredoxin 1 (Trx1), S. cerevisiae, cytosolic isoform; cloned in PET24 vector; also called Trx1His wt; TrxHis; source: E. coli, purified (Ni-NTA); for the pull-down imported into isolated wt yeast mitochondria
B3: Mia40Δ290 His (S. cerevisiae Mia40 devoid of the N-terminal 290 residues) (domain or fragment, UniProt P36046 291-403, looked up)
chain: EINWDCPCLGGMAHGPCGEEFKSAFSCFVYSEAEPKGIDCVEKFQHMQDCFRKYPEHYAEQLKETSDDEEPQDKVKVNTIESAPNVSSAKENAAKKAEQSDVKKEPLNEESKP
notes: Mia40, S. cerevisiae, lacking the first 290 amino acids; core domain of about 15 kDa; also called core domain of Mia40; soluble functional domain of Mia40; source: purified as 6His-tagged protein
B4: Thioredoxin 2 (Trx2), His-tagged (natural protein, S. cerevisiae, UniProt P22803 1-104, looked up)
chain: MVTQLKSASEYDSALASGDKLVVVDFFATWCGPCKMIAPMIEKFAEQYSDAAFYKLDVDEVSDVAQKAEVSSMPTLIFYKGGKEVTRVVGANPAAIKQAIASNV
notes: Thioredoxin 2 (Trx2), S. cerevisiae, cytosolic isoform; source: purified as 6His-tagged protein

Positions count from the first letter of the chain named.

Data set [1] addresses B3. Nature of the data set: ITC; 1 mM Mia40Δ290 His in the syringe, 0.1 mM TrxC30/33SHis in the cell; Kd calculated with the Origin software. The following applies: both partners purified.
Data set [2] concerns the molecule itself. The experiment in a line: cross-linking; glutaraldehyde 0.1 % final, equimolar purified proteins alone or together, 50 mM Hepes-KOH pH 7.4, on ice, 20 seconds to 10 minutes; SDS-PAGE and anti-His immunoblot. (In general: Immunoblotting shows a protein as a band on a membrane.)
The target of data set [3] is B3. The description is as above. The following applies: both partners purified.

One may read the Kd as the equilibrium constant for the complex coming apart. B1: the equilibrium dissociation constant (Kd) in data set [1] is 30 µM. Also, in data set [2], the binding result is listed as “binds”.
As for B2, the binding result in data set [2] and in data set [3] was “binds” each time.
Take B3: the binding result in data set [2] is on record as “binds”.
As to B4, the binding result in data set [2] and in data set [3] was “binds” each time.

Source of the values: paper doi:10.1101/2021.06.22.449413, “A Thioredoxin reductive mechanism balances the oxidative protein import pathway in the intermembrane space of mitochondria” (bioRxiv, 2021).
